Data as given in patent WO2021180110A1 (dated 2021).

T1: CD147-his fusion protein (human, UniProt P35613 22-205)
T1 sequence: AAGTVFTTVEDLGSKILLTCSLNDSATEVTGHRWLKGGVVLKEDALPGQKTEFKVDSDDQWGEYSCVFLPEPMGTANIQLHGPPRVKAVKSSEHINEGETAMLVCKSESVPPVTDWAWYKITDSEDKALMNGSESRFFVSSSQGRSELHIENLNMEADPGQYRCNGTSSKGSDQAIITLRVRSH

T2: CD147-Tag fusion protein (human, UniProt P35613-2 22-205)
T2 sequence (looked up): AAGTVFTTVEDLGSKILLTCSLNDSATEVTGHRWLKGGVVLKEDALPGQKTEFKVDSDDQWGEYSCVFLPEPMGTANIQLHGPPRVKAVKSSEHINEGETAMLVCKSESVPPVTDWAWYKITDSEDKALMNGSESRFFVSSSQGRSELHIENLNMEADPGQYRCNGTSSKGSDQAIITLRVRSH

B1: anti-human BASIGIN humanized antibody (antibody, V domains shown)
VH: EVQLVESGGGLVQPGGSLRLSCAASGFTFSNFWMNWVRQAPGKGLEWVSEIRLKSNNYATHYAESVKGRFTISRDDSKNTLYLQMNSLKTEDTAVYYCTSYDYEYWGQGTLVTVSA
VL: DIQMTQSPSTLSASVGDRVTLSCKASENVGTYVSWYQQKPGKAPKLLIYGASNRYTGVPSRFTGSGSGTDFTLTISSLQPEDFATYYCGQSYSYPFTFGSGTKLEIK
B2: CD147 (receptor, human, UniProt P35613-2 22-205, looked up)
chain: AAGTVFTTVEDLGSKILLTCSLNDSATEVTGHRWLKGGVVLKEDALPGQKTEFKVDSDDQWGEYSCVFLPEPMGTANIQLHGPPRVKAVKSSEHINEGETAMLVCKSESVPPVTDWAWYKITDSEDKALMNGSESRFFVSSSQGRSELHIENLNMEADPGQYRCNGTSSKGSDQAIITLRVRSH
notes: also called BASIGIN; EMMPRIN

Columns and labels:
CD147-his fusion protein = biological target: T1, CD147-his fusion protein
CD147-Tag fusion protein = biological target: T2, CD147-Tag fusion protein
[1] = biological target: CD147 on Vero E6 host cells; test: cell-based or functional assay
cyclophilin A (CyPA) [2] = biological target: T3, cyclophilin A (CyPA) (UniProt P62937 1-165)
T3 sequence (P62937 whole entry): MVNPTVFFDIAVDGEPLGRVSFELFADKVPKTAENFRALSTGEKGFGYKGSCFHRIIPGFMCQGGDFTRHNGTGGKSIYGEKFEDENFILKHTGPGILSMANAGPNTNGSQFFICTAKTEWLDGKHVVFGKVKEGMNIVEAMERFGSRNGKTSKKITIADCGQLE

cyclophilin A (CyPA) [3] = biological target: T3, cyclophilin A (CyPA); test: ELISA; format not described

Binder	IC50 (CD147-his fusion protein)	IC50 (CD147-Tag fusion protein)	EC50 of inhibition of cytopathic effect of COVID-19 virus on Vero E6 cells [1]	Kd (cyclophilin A (CyPA) [2])	koff (cyclophilin A (CyPA) [2])	EC50 (cyclophilin A (CyPA) [3])
B1	16.4 µg/mL	1.28 µg/mL	36 µg/mL			
B2				~8.7 µM	0.0008 s⁻¹	135 µg/mL
